Experimental findings from patent US20220308056A1 (OMEROS, published 2022) are described below.

The target of the test is T1, MASP-2/C1-INH complex (fluid-phase, from human serum or plasma) (human, UniProt O00187 16-686; P05155 22-500).
T1 construct: also called C1-INH/MASP-2 complex
Briefly: sandwich ELISA; mAb coated as capture, anti-C1-INH polyclonal detection, mannan-activated human serum.

T1 sequence (O00187 16-686, chain 1 of 2): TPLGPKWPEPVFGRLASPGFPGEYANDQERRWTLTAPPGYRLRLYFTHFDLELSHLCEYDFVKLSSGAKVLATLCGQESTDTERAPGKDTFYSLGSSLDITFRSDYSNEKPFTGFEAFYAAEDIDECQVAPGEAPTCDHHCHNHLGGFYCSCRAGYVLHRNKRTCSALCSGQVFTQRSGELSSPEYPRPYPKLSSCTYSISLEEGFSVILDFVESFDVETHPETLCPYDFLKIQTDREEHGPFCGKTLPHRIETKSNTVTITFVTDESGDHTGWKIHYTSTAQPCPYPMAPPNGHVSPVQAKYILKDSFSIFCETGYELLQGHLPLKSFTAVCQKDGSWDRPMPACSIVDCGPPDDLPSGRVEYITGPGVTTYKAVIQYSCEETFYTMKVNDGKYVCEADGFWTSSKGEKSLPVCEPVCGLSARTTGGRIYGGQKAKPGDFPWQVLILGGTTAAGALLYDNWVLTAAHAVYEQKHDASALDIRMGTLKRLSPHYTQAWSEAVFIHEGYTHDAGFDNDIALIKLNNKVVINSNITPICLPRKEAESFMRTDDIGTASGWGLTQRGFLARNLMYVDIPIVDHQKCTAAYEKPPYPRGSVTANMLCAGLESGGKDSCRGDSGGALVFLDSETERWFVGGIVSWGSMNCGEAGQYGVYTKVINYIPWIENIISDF
T1 sequence (P05155 22-500, chain 2 of 2): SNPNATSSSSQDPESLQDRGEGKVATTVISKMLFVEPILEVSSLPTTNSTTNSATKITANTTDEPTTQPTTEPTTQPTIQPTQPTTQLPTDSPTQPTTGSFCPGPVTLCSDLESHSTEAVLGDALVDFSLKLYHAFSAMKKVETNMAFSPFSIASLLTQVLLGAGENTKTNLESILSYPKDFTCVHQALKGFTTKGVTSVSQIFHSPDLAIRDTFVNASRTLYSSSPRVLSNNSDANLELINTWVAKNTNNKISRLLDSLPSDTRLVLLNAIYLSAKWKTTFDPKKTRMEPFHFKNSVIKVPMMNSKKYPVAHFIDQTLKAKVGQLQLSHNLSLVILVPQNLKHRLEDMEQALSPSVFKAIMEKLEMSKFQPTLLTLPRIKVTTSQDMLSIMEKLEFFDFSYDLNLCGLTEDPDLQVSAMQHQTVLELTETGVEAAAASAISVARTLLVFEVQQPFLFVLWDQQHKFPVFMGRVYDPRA
Method: The microtiter plate was blocked with 280 μl/well of 1% (w/v) BSA in TBS buffer for 1 hr at RT. (ii) Activated control serum was prepared by diluting pooled normal human serum (NHS) to 20% v/v in Tris-buffered saline (TBS; 10 mM Tris-C₁, 140 mM NaCl, pH 7.4) with 5 mM Ca²⁺. Mannan-agarose (100 uL, Sigma cat. M9917) was washed twice with five volumes of TBS/Ca²⁺, and resuspended to 100 μl in the same buffer. 500 μl of 20% serum was added to the 100 μl of mannan-agarose and incubated at room temperature (RT) with gentle shaking or rotation for 30 minutes. EDTA was then added to an end concentration of 10 mM and incubated for a further 2 minutes. The agarose was then spun down and the activated serum was aspirated off and stored at −20° C. (iii) Serial dilutions were prepared from the activated control serum over a range of 0.1% to 20% and the in TBS/Ca²⁺. The blocking buffer was discarded and 100 ul/well of samples or control sera was added to the plate and incubated for 1 hour at room temperature. […] (v) The plate was then washed 3× as described above. 100 μl/well anti-rabbit HRP (Sigma, 1:5000) was added and incubated for a further 45 min. (vi) The plate was then washed 3× as described above and 100 μl/well TMB substrate was added. When blue color developed, 50 μl/well 2N H₂SO₄ was added to stop the reaction and measured at the OD₄₅₀ nm.

B1: anti-MASP-2 mAb clone #C7 (antibody, V domains shown)
VH: EVKLVESGGGLVKPGGSLKLSCAASGFTFSSYLMSWVRQTPEKRLEWVATISGGGGNTYHPDSMKGRFTISRDNAKNTLYLQMSSLRSEDTALYYCARHGDFGNYFDYWGQGTTLTVSS
VL: DIVMSQSPSSLAVSAGEKVTMSCKSSQSLLNSGTQKNYLAWYQQKPGQSPKLLIYWASTRESGVPDRFTGSGSGTDFTLTISSVQAEDLAVYYCKQSYNLFTFGAGTKLELKR
notes: From hybridomas of immunized MASP-2 KO mice; also called mAb #C7; mAb #7
For the molecule B1, the binding result is on record as “binds”.
